Source: the supplement of paper PMC9170038

Test system: MS2 coat protein
Test: apparent KD of MS2 coat protein; designed switch direction (-1 OFF switch, 1 ON switch): 1; higher = weaker reporter binding
In short: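 The apparent KD reported per design is the median over clusters of curve fits to normalised cluster fluorescence. The RNA switches were transcribed on Illumina chips by stalled E. coli RNA polymerase. SNAP-549-labelled MS2 coat protein was titrated from 0.7 or 1.5 nM, doubling up to 3 µM, in Tris-HCl pH 7.5 buffer containing KCl, MgCl2, BSA, DTT, tRNA and Tween-20, with no input, 200 uM small-molecule ligand, or an oligonucleotide input.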

[1] = input ligand: microRNA oligo, concentration not stated
[2] = Eterna round: R95, input ligand: FMN 200 uM
[3] = Eterna round: R95, input ligand: microRNA oligo, concentration not stated
[4] = Eterna round: R95, input ligand: none

Row | Sequence | apparent KD of MS2 coat protein (input ligand: FMN 200 uM) [nM] | apparent KD of MS2 coat protein [1] [nM] | apparent KD of MS2 coat protein (input ligand: none) [nM] | apparent KD of MS2 coat protein [2] [nM] | apparent KD of MS2 coat protein [3] [nM] | apparent KD of MS2 coat protein [4] [nM]
1 | GUGGUCAGACAUGAGGAUCACCCAUGUGGAAUAAAUAAGGACUAGGAUAUUUAAUAUAGGAUAUAAAAGAAGGAGUGGUUGGUG (Eterna round: R96, puzzle: Same State NG 3) | 85.1 | 44.1 | 59.6 | – | – | –
2 | GUGGUCAGACAUGAGGAUCACCCAUGUGGAAUAAAUAAGGGACAGGAUAUUCAAUAUAGGAUAUAGAAGAAGGGUUGGUUGGUG (Eterna round: R96, puzzle: Same State NG 3) | – | 104 | – | – | – | –
3 | GUGGUGUAGAUACAGGAUAUGUUGCUCGUAACAUGAGGAUCACCCAUGUAUCUAUGAGAAUAAAUGCAGAAGGGUGCACACCACG [Mat - Same State 2 - Mod of UCT - D73] (puzzle: Same State 2) | – | – | – | 19.1 | 352 | 311
4 | GUGGUGUAGAUACAGGAUAUGUUGCUCGUAACAUGAGGAUCACCCAUGUAUCUAUGAGAUUAAAUGCAGAAGGGUGCACACCACU [salish99_ss2_r3_086] (puzzle: Same State 2) | – | – | – | 15.7 | 148 | 325
5 | GUUAAACAUGAGGAUCACCCAUGUCAAUGUAGUCGAGGAUAUGGGCAGCUAUGAGGCGUACUAGAAGGCGAAGAGU [Mat - Same State 1 - Mod of JL - D12] (Eterna round: R96, puzzle: Same State 1) | – | 224 | – | – | – | –
6 | GUUAAACAUGAGGAUCACCCAUGUCAAUGUAGUCGAGGAUAUGGGCAGCUAUGAGGCGUACUAGAAGGCGAAGAGU [Mat - Same State 1 - Mod of JL - D12] (puzzle: Same State 1) | – | – | – | 106 | 196 | 280
7 | GUUACAUGAGGAUCACCCAUGUAUGUGUGGGAGUAAGUGUCUUAGGAUAUCUAUGAUUUAAUUAAAGAGAAGGAAGAUUGUUGU [JMF's solution 83] (Eterna round: R96, puzzle: Same State NG 3) | 154 | 85 | 103 | – | – | –
8 | GUUACAUGAGGAUCACCCAUGUAUGUGUGGGAGUAAGUGUCUUAGGAUAUCUAUGGUUUAAUUUAAGAGAAGGAAGAUUGUUGU [JMF's solution 72] (Eterna round: R96, puzzle: Same State NG 3) | 111 | 73.9 | 96.6 | – | – | –
9 | GUUACAUGAGGAUCACCCAUGUAUGUGUGGGAGUAAGUGUCUUAGGAUAUCUAUUAUUAAAAUUAAGAGAAGGAAGAUUGUUGU [JMF's solution 18] (Eterna round: R96, puzzle: Same State NG 3) | 115 | 98.1 | 103 | – | – | –
10 | GUUACAUGAGGAUCACCCAUGUAUGUGUGGGAGUAAGUGUCUUAGGAUAUCUGUUAUUUAGUUUAAGAGAAGGAAGAUUGUUGU [JMF's solution 41] (Eterna round: R96, puzzle: Same State NG 3) | 124 | 80.9 | 97.4 | – | – | –
11 | GUUACAUGAGGAUCACCCAUGUGUGUGUGGGAGUGAGUGGCUUAGGAUAUCUAUGAUUUUAGUUAAGAGAAGGAGGAUUGCUGU [SS-NG3-LRO07] (Eterna round: R96, puzzle: Same State NG 3) | 275 | 267 | 414 | – | – | –
12 | GUUAGGAAUCUAGCUGACAUGAGGAUCACCCAUGUUAGUGGGAAGGAUAUGGUACAGAAACUGUACCAGAAGGUCUUACUGUCU [MOD Omei's SS(NG) 3 AV9] (Eterna round: R96, puzzle: Same State NG 3) | 23.8 | 21.4 | 25.9 | – | – | –
13 | GUUAUACAUGAGGAUCACCCAUGUCAAUGUAGUCGAGGAUAUGGGCAGCUAUGUAGCGUACUAGAAGGCGAAGAGU [JL-ss1-3.13 ViennaUCT mod] (puzzle: Same State 1) | – | – | – | 68.4 | 43.1 | 103
14 | GUUCGGAAUCGAGCUGACAUGAGGAUCACCCAUGUUAGUGGGAAGGAUAUGGUACAGAAACUGUACCAGAAGGUCCUGCUGUCU [MOD2 Omei's SS(NG) 3 AV9] (Eterna round: R96, puzzle: Same State NG 3) | 38.2 | 57.2 | 59.5 | – | – | –
15 | UACAAUCUAUCUGAGGAUAUCAUGAUCAUAACAUGAGGAUCACCCAUGUGCAGGAAAACUGCAUAUGAGAAGGCAGAUAGAUUGU [salish99_ss2_r3_073] (puzzle: Same State 2) | – | – | – | 214 | 154 | 863
16 | UAGAGAGGAAGCGAGGAUAUCGUGUGAGGUACAUGAGGAUCACCCAUGUUUUAUGUUGAGAGAGGCGAGAAGGCGCAGGAGAAAA [JR_SS2_Sub087] (puzzle: Same State 2) | – | – | – | 20 | 37.3 | 26.2

Row | Sequence | apparent KD of MS2 coat protein (input ligand: FMN 200 uM) [nM] | apparent KD of MS2 coat protein [1] [nM] | apparent KD of MS2 coat protein (input ligand: none) [nM] | apparent KD of MS2 coat protein [2] [nM] | apparent KD of MS2 coat protein [3] [nM] | apparent KD of MS2 coat protein [4] [nM]
17 | UAGAGAGGAAGCGAGGAUAUCGUGUUAGGUACAUGAGGAUCACCCAUGUUGUAGGUAGAGGUAGGCGAGAAGGCGCAGGAGAGGA [JR_SS2_Sub092] (puzzle: Same State 2) | – | – | – | 35.6 | 37.6 | 66.2
18 | UAGGGACAUGAGGAUCACCCAUGUGCCUCAUAUGGAGAAACACAGGAUAUGCUGAGGGAAACAUGGCAGAAGGGUGAAGAGAGG [Default title] (Eterna round: R96, puzzle: Same State NG 3) | 31.9 | 27.3 | 50.9 | – | – | –
19 | UAGUGAUUGCAAGGAUAUGCUAGUUUUUAUUUGUGUUUGAUAACAAACAUGAGGAUCACCCAUGUGCAGAAGGUGCUAGAUAUG [JR_SSNG2_Sub079] (Eterna round: R96, puzzle: Same State NG 2) | – | 348 | – | – | – | –
20 | UAGUUACUAUCUCAGGAUAUCAUGUCAAAGACAUGAGGAUCACCCAUGUACCAGGAAACUGGUUAUGAGAAGGGAGAUAGUAACA [Mat - Same State 2 - Mod - D56] (puzzle: Same State 2) | – | – | – | 78.7 | 34.2 | 38.6
21 | UAUCCAUAGAUAGGAUAUCAGUAUACAUGAGGAUCACCCAUGUUAUACUUGGUUUUAAGUUAGUCUGAGAAGGAUCUUGAUGAA [SameState NG2 #4] (Eterna round: R96, puzzle: Same State NG 2) | 12.6 | 11 | 12.9 | – | – | –
22 | UAUCGUUUGAUAGGAUAUCGCUAUACAUGAGGAUCACCCAUGUUUACCACGCUGGUUUUUCAUACCGAGAAGGAUUCUGAUGAC [salish99_SSNG02_r04_006] (Eterna round: R96, puzzle: Same State NG 2) | 38.3 | 31.5 | 27.7 | – | – | –
23 | UAUUAAUCUGUAGGAUAUCUAGGAUAUGGACGAGGAUCACCCGAGCAGCAUCAGCGCACCAGAGGAGAGAAGGACGCUUUGGUG [pwkr ssNG2 2F5 2FMN.2] (Eterna round: R96, puzzle: Same State NG 2) | 325 | 208 | 367 | – | – | –
24 | UAUUUAAUCGUAGGAUAUAGAAUGAAAUUUGUACUAGAAGGACGUUACAUGAGGAUCACCCAUGUGGUAAGUGGGACAUAGUUU [JR_SSNG1_Sub036] (Eterna round: R96, puzzle: Same State NG 1) | 141 | 84.5 | 82.2 | – | – | –
25 | UCGAGCGUACUUGCAGACAUGAGGAUCACCCAUGUAAAUGGGAAGGAUAUGGUACCGUUUCGGUACCAGAAGGUCCUGGGUGCU [salish99_SSNG3_r04_307] (Eterna round: R96, puzzle: Same State NG 3) | 329 | 1090 | 984 | – | – | –
26 | UCUGAUGCCGUAGGAUAUCUAGGAUAUGGACGAGGAUCACCCGAGCAGCAUCAGCGCACCAGAGGAGAGAAGGACGCUUUGGAA [pwkr ssNG2 2F5 2FMN.21] (Eterna round: R96, puzzle: Same State NG 2) | 438 | 274 | 1190 | – | – | –
27 | UCUUGGUUUUUGCUCGUUUUUUGUGUUGAACAUGAGGAUCACCCAUGUAUUGUACAAUCCAGUUUAAUAAUGGUCCA [Mod of one of JR's submissions 2] (puzzle: Sensor for hsa-mir-208a) | – | – | – | 55 | 51 | 61.7
28 | UCUUGGUUUUUGCUCGUUUUUUGUGUUGAACAUGAGGAUCACCCAUGUAUUGUACAAUCCGAUUUAAUAAUGGUCCG [JMF 50] (puzzle: Sensor for hsa-mir-208a) | – | – | – | 42.5 | 48.4 | 46.4
29 | UCUUGGUUUUUGCUCGUUUUUUGUGUUGAACAUGAGGAUCACCCAUGUAUUGUACAAUCCGGUUUAAUAAUGGUCCG [JMF 51] (puzzle: Sensor for hsa-mir-208a) | – | – | – | 35.2 | 26.7 | 36.3
30 | UCUUGGUUUUUGCUCGUUUUUUGUGUUGAACAUGAGGAUCACCCAUGUAUUGUACAGUCCAGUUUGAUAAUGGUCCG [JMF 56] (puzzle: Sensor for hsa-mir-208a) | – | – | – | 39 | 33.3 | 44.3
31 | UCUUGGUUUUUGCUCGUUUUUUGUGUUGAACAUGAGGAUCACCCAUGUAUUGUACGGUCCGAUUUGAUAGUGGUCCG [JMF 20] (puzzle: Sensor for hsa-mir-208a) | – | – | – | 26.1 | 15.7 | 27
